Experimental findings from PMC5716589, “The nucleoid as a scaffold for the assembly of bacterial signaling complexes” (PLoS Genetics, 2017) are described below.

Series [1] concerns the molecule itself. Kind of series: SEC-MALS; 100 μl of 2 mg/ml (45 μM) FrzCD injected on a BioRad EnRich650 column in 50 mM Tris, 50 mM NaCl, pH 8.0, 0.4 ml/min; Wyatt Dawn Heleos II, Debye model. On the technique in general: SEC sorts molecules by how far they enter the pores of the column.
For a further series, the target named is T1, FrzCD-(His)6 (Myxococcus xanthus, UniProt P43500 1-417).
T1 sequence: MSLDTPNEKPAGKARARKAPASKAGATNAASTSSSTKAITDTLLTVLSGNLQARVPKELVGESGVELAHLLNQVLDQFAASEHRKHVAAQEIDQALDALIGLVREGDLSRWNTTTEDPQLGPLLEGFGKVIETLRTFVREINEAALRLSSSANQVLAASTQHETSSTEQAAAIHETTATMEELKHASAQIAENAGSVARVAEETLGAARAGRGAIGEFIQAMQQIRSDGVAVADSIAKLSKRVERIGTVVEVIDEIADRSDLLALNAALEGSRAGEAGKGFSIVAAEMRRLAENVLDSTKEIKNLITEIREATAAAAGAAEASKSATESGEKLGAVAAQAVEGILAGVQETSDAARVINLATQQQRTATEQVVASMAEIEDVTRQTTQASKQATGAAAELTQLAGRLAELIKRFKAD
Kind of series: EMSA; 300 nM DNA; EMSA Fig 3: 10 mM Tris-HCl pH 8, 60 mM NaCl, 10% glycerol, 4 C, 40 min; EMSA S4 Fig: 50 mM Tris pH 7.4, 50 mM NaCl, 1 mM DTT, 10% glycerol, 25 C, 20 min; BLI: PBS pH 7.5, 0.001% Tween-20, 25 C (6His-FrzCDΔ1-130 used as reference subtraction). The note with it: protein: recombinant; tags: C-terminal 6His; chain copies: 2; blunt.

B1: C-terminal-tagged FrzCD-(His)6 (receptor, Myxococcus xanthus, UniProt P43500 1-417, looked up)
chain: MSLDTPNEKPAGKARARKAPASKAGATNAASTSSSTKAITDTLLTVLSGNLQARVPKELVGESGVELAHLLNQVLDQFAASEHRKHVAAQEIDQALDALIGLVREGDLSRWNTTTEDPQLGPLLEGFGKVIETLRTFVREINEAALRLSSSANQVLAASTQHETSSTEQAAAIHETTATMEELKHASAQIAENAGSVARVAEETLGAARAGRGAIGEFIQAMQQIRSDGVAVADSIAKLSKRVERIGTVVEVIDEIADRSDLLALNAALEGSRAGEAGKGFSIVAAEMRRLAENVLDSTKEIKNLITEIREATAAAAGAAEASKSATESGEKLGAVAAQAVEGILAGVQETSDAARVINLATQQQRTATEQVVASMAEIEDVTRQTTQASKQATGAAAELTQLAGRLAELIKRFKAD
notes: FrzCD, cytoplasmic chemoreceptor (MCP) of the Frz chemosensory system of Myxococcus xanthus; the names of the deletion mutants (Δ131–417) imply 417 residues; also called FrzCD-H6; 6His-FrzCD (as called in the results for this experiment); source: E. coli BL21-AI, purified (HisTrap FF, MonoQ ion exchange)
For the molecule B1, the “stoichiometry N” value in series [1] is 2.

B2: Oligo70 (dsDNA)
DNA 1: CTTGCAGTAGAGCTGACCATGATTACGCCATCAGCAGCTCCAGGTCGTACCTCCAGCTACCAATCCCCG
DNA 2: CGGGGATTGGTAGCTGGAGGTACGACCTGGAGCTGCTGATGGCGTAATCATGGTCAGCTCTACTGCAAG
For the molecule B2, in the series with FrzCD-(His)6, the binding result is “binds”.

Broadly, the stoichiometry N is a count of units in the complex or per binding partner.
